# Test results reported in a protein production outcome set (Wang et al. 2014).
# Assay: label from the status in PepcDB records
row,Sequence,protein production
1,MDSMILGRYIPGDSIVHRLDPRSKLLAMMLLILIVFWANNPLTNLILFIATGIFIALSGVSLSFFIQGLKSMFFLIAFTTIFQLFFISNGNVLFEFSFVRITDYALQQAGIIFCRFVLIIFFSTLLTLTTMPLSLASAVEALLAPLKRVKVPVHEIGLMLSMSLRFVPTLMDDTTRIMNAQKARGVDFGEGSIVQKVKAMIPILIPLFATSLKRADSLAIAMEARGYQGGKGRSQYRQLKWTLKDTLTILVILVLGCCLFFLKS,failed
2,METLHPFSHLPISDHRFVVQEMVSLHSSSSGSWTKEENKMFERALAIYAEDSPDRWFKVASMIPGKTVFDVMKQYSKLEEDVFDIEAGRVPIPGYPAASSPLGFDTDMCRKRPSGARGSDQDRKKGVPWTEEEHRRFLLGLLKYGKGDWRNISRNFVVSKTPTQVASHAQKYYQRQLSGAKDKRRPSIHDITTGNLLNANLNRSFSDHRDILPDLGFIDKDDTEEGVIFMGQNLSSENLFSPSPTSFEAAINFAGENVFSAGA,failed
3,MSNELLMSSAEYPAHQENKRFRGASSQNITVILPACNNEVSIGSLILLTRLYADNVIVVDDGSTDRTVEISRKAGAHVIVNEACKGKVGSLRTGFTAAADLGADIIVTMDPDGQHNPAEIPRIVAPIIDGTAEMVNGSRYLNYPGKNSSVYSRTGQTMQDISANMNFNLKITDTQSGFRAYAASTKSIFRFSGKKTAIENEMLADAGRSGIRIAEVEIGACTSVGASIRDPVKYTLGALRTMAEDIEANKPLYFYSVPGFALATCGFFMGFKFMADYFFGIASLNFGHTFLMVFLALAGAYMTLRGIIAHSMAGAARQTDST,failed
4,MNLKQISAIIIVKNAKQTLLECLNSLKDFDEIILLNNESSDNTLNIANEFKKDFANLHIYHSAFIGFGALKNLALSYAKNDWILSIDADEVLENECIKELKNLELQEDNIIALSRKNLYKGEWIKACGWWPDYVWRIFNKNFTRFNDNLVHESLVLPSNAKKIYLKNGLRHYAFRDISHLIDKMQYYSSLWAKQNIHKKSGVLKANLRAFWTFFRNYFLKNGFLYGYKGFIISVCNALGTFFKYMKLYELQKQKPKTCALIITTYNQKERLKLVLDSVKNLAFLPNEVLIADDGSKEDTARLIEEYQKDFPCPLKHIWQEDEGFRAAKSRNNAIKASKSEYIILIDGDMILEKDFVKNHLEFAKRKVILQGSRVILNKNESEEILKNNNYSLAFNKKGFKNQRSIFLAKCVYKFSKLTKKFFKKSQLVKGSKTCNMSFYKSDFEAIEGFNEKFIGWGREDSEFVARFLFNDGVFKRLKFNALAYHIYHEENSKNMLEINHQIYLETIKNEKTTWRLEHHHHHH,failed
5,MQKKQVIAVLVAVVGIGIVFSLPKVLVDNEKESVEGAEVTVAHEDSLSEVGKLMAEKHTHKPSDSEQKKLQDFTKNYYSISDKEKKRIFADSILGYYNKFHKYDSVAKYSGEIAMLQPNEKNLLSAADAYMQASDLVSVNEKSAYMDKSRLYYEKALDINASNLDTKSKLAMTYVTTSNPMTGIRILQEVVKEDPRNETAIFNLGYLSMQSRQYNKAVDRFKSLIEINPAHASGTFYLGLSYLELGNKGKANQYFMKAKGLDSDPEFQAIIDSYLKESN,failed
6,MQQINFYRQRVAINVLAKDIANAKAIYEAAEGHAVIGVLSAQFATVEEGVPEVKRWMAEVPSISVGLGAGDPAQYYKAAMIAAHTHPAHVNQTFTGSGFAAGALAATGGEQTHINALVSPTGTPGEVVISTGVSSSQGTPARVSCEAAVRMMQDMGAHAAKFFPMGGEKSLPELYALATTAARHGMTLIEPTGGISLDNFGIILQTCLEAGVPRVMPHVYSSIIDPQTGNTRPEDIIQLMEIVKALV,failed
7,MTPHPARSKISPYRDIEIFMDLEDWSARLKVFADATRVRLLALLEQEELTVAELSAITRLAQPRVSTHLAKLKEAGLVRDRRAGVSAYYRFDEVSLDPAQRALWLALSTGSDDPLLRQDAERVAAVLANRAADQNWADSVAGDMERHYSPGRTWEALARTALPLLETGDVLDIASGDGVLAELVAPHATRYICIDTSARVVAAASERLRKLRNVEVREGDMHALPFPDASFDLVVLMHALTYAAKPAQAVAESARVLRPGGRLLLCSLAKHEHRAAVQAYGHVNLGFAAKELRKFVEKAGLDVSNLESVTREKRPPHFEVISLIAMKPGIGNRESGLVEGKSNASRRANA,failed
8,SETQSFVVSVAGSDRVGIVHDFSWALKNISANVESSRMACLGGDFAMIVLVSLNAKDGKLIQSALESALPGFQISTRRASSVAERHVSPDTREYELYVEGPDSEGIVEAVTAVLAKKGANIVELETETLPAPFAGFTLFRMGSRVAFPFPLYQEVVTALSRVEEEFGVDIDLEEVVEGEDSEEDDDSPNSPVGRH,not failed
9,GHFPRACVSSKNLMEKECCPPWSGDRSPCGQLSGRGSCQNILLSNAPLGPQFPFTGVDDRESWPSVFYNRTCQCSGNFMGFNCGNCKFGFWGPNCTERRLLVRRNIFDLSAPEKDKFFAYLTLAKHTISSDYVIPIGTYGQMKNGSTPMFNDINIYDLFVWMHYYVSMDALLGGSEIWRDIDFAHEAPAFLPWHRLFLLRWEQEIQKLTGDENFTIPYWDWRDAEKCDICTDEYMGGQHPTNPNLLSPASFFSSWQIVCSRLEEYNSHQSLCNGTPEGPLRRNPGNHDKSRTPRLPSSADVEFCLSLTQYESGSMDKAANFSFRNTLEGFASPLTGIADASQSSMHNALHIYMNGTMSQVQGSANDPIFLLHHAFVDSIFEQWLRRHRPLQEVYPEANAPIGHNRESYMVPFIPLYRNGDFFISSKDLGYDYSYLQDSDPDSFQDYIKSYLEQASRIWSWLLGAAMVGAVLTALLAGLVSLLCRHKRKQLPEEKQPLLMEKEDYHSLYQSHL,failed
10,MAHTVYENARIYTVNDQQPTASVLVVEQGKIIYVGGNDGAKQFKATAAELFDLEGKTVLPGFIESHAHPLEHHHHHH,failed
11,APKTFMFGVSKVEEPKTVSFGTGIKETTATSSTEATAPTPAAAAPAPVQFVFKAPTTATTASSLTTTISTTSNAPALGGFSFGAPSSSSTVSSSTTSTSANPAAVKPMFSWSGAGSAVSSTSSSQQPVAKAPTLGFGVSSSTVTTTTTSTKVFAFTPASGLDPAAATSAPAAGAGFSFGSQSKPATTQNTGTFFFGQPTAVAPATPTNPSVSSIFGAPATSTTASTSVSATTSTSTANAIASSFAPTSTPQLFGNWGEKKTDLTTFGASSGSGTTTTPSFGWSSNGDAAKSNSAAVGSAAVPSSSASTMATPIFGSSSMFGPSSSSNNTTSTSTTSLPFGSAATTAATTPAGGNAALTGLFGNVGNSLAGVGAPVATTPAATAAAPLTNIFGNPTPVAAAAPVFGSGSTIPSAGFGAPAAAAPLAAPALPGAFN,failed
12,MFLRIDRLQIELPMPKEQDPNAAAAVQALLGGRFGEMSTLMNYMYQSFNFRGKKALKPYYDLIANIATEELGHIELVAATINSLLAKNPGKDLEEGVDPESAPLGFAKDVRNAAHFIAGGANSLVMGAMGEHWNGEYVFTSGNLILDLLHNFFLEVAARTHKLRVYEMTDNPVAREMIGYLLVRGGVHAAAYGKALESLTGVEMTKMLPIPKIDNSKIPEAKKYMDLGFHRNLYRFSPEDYRDLGLIWKGASPEDGTEVVVVDGPPTGGPVFDAGHDAAEFAPEFHPGELYEIAKKLYEKAK,not failed
13,PLPPPRALTLAAVTPRTVHLTWQPSAGATHYLVRCSPASPKGEEEEREVQVGRPEVLLDGLEPGRDYEVSVQSLRGPEGSEARGIRARTPT,not failed
14,MRLNYPSKVSEEGFQVMVLSLSILKKSFNDFLSTRMLLINLGPILLSLAFFGAVFYYNGGNIVGYCQTLLPQSLNDYSHSQGFFAGVFAWVFKALVYFLIFWIVILLSLVINIFASIFYTPLVVSYLHQKYYPHVVLEEFGSILFSIKYFLKSLAFMLLFLAVLTPFYFIPFIGVFGVFFSIVPHFLFFKNTMSLDIASMIFNHQSYQNLLKQHRLKHYRFSFFCYLFSLIPFFNFFATLLQTLMLTHYFFIFKEKEC,not failed
15,MIPFTIEYIFVLIGAFLLSIILTPIIRVISLKVGAVDKPNARRINKVPMPSSGGLAIFLSFVVTTLFFMPMAASRHFIEVSYFHYILPVIIGGLVVTTTGFIDDIFELRPRYKMLGIIIAAIIIWKFTHFRFDSFKIPIGGPLLEFGPILTFFLTVLWIISITNAINLIDGLDGLVSGVSIISLATMAVVSYFFLPKIDFFLTLTIVILIASIVGFFPYNYHPAIIYLGDAGALFIGFMIGVLSLQGLKNSTAVAVITPVIILGVPILDTAVAIVRRKLSGKKISEADKMHLHHRLLSMGFTHRGAVLVVYGIAIIFSLIALLLNVSSRIGGIFLLLALLLAMEIFIEGLNIWGENRTPLFNLLKFIGNSDYRQSVIAKYSDKHQK,failed
16,MANNSPNAAVSVQSPTHQQALACLRELVGHPEAQFHDGQYEAIEALVDAGRRALVVQRTGWGKSAVYFVASLLLRRRGSGPTLIVSPLLALMRDQVAAAARAGVRAVAINSANALEWDTVLAQLAADEVDVLLVSPERLTNPSFRENQLPELIRRTGLLVIDEAHCISDWGHDFRPDYRRIADLIAQLPESVPVLATTATANSRVVHDIEEQLGAGVLTIRGALGRESLRLGVLTLPDSRDRLGWLLTHLADMPGSGIIYTLTVSAAEDTARLLAEAGHNVLSYTGRTDPADRERAEQLLKDNQVKALVATSALGMGFDKPDLGFVIHLGAPSSPVAYYQQVGRAGRGAANADVLLLPGSEDREIWQYFATASMPSAEKAAAVLGVLGEAGSALSTVALEARVDLRRTPLELLLKVLAVDGAVERVGGGWRSTGQPWNYDAERYARIAEARVDEQDSMVIYQDTAGCRMEYITSVLDDETAASCGRCDNCAGRWFPVDVAASAADAAGQTLRRAGIAVEPRLQWPSGMDRLGVAAKGKIKPDESVSEGRILARLTDLGWGGALRELFAAGAPDHAVDPAMLQACVQVLREWSGAEGGTPWSGVGRPAAVVSIPSRSKPQLVESLAQGIAGIGRMPYLGQLQPQYGGPTGARGGNSAYRLAGVWDRLVVGPELAQALAGTGGQPVLLVDDLIDSRWTMTVSARALRQAGVSAVLPLALAQAG,failed
17,MSEMAASSAISLLDIKLRRFGVGASNHELRLTKWFKGDQAGAPTRRFTCFADMLAPIRRSEKSEERRFDQKMSAHGAGIKTSSSAVPFASPKSRFLSKQEKFYPRCTPRLTGPQSRDTPPKRDTGIANEKDWGIDLLNENVNEAGTNEDGSSWFRESGHDLGDNGYRCRWSRMGGRSHDGSSEWTETWWEKSDWTGYKELGVEKSGKNSEGDSWWETWQEVLHQDEWSNLARIERSAQKQAKSGTENAGWYEKWWEKYDAKGWTEKGAHKYGRLNEQSWWEKWGEHYDGRGSVLKWTDKWAETELGTKWGDKWEEKFFSGIGSRQGETWHVSPNSDRWSRTWGEEHFGNGKVHKYGKSTTGESWDIVVDEETYYEAEPHYGWADVVGDSTQLLSIQPRERPPGVYPNLEFGPSPPPEPDLPLTNHNDITSVCLAY,failed
18,MSRVPGWLGRLGAGLTRASERLEQRREEARRDDADDGPGPVSDHERRPLDDTAEDSAVEHLAAHRPVALAHRPDPAQAVPWGVRVAAEAGWRLLVLAGTVWVLMRVISAVQLVVLAFVAALLITALLQPAVAWLRRHGVPRGPATALTAILGFVVMGLIGWFVTWQVMENIDNLSDQVQDGIDELRNWLLNSPFHVTDKQINEIAKNLRDAVGANTDQITSAGLEGVTVVVEALTGILLAAFSTLFLLYDGKRIWQWSLKLVPAAARPGVAGAGPRAWRTLTAYVRGTVIVALIDAIFIGLGIYFLDVPMAVPLAVFIFLFAFIPLVGAVVSGALAVVVALVTQGVFAAVMTLVVVLAVQQIEGHILQPFILGRAVRVHPLAVVLSVAAGGMVAGIGGAVVAVPLVAVTNTVVGYLRAYSREAALRRTPRPHGATSTDAAPAVDRVPGPPKPPAPPADGPPSDAP,failed
19,AEEKVKDEAMQIMGMFQILPRLVVFDLDYTLWPFYCECRSKREMPSMYPQAKGILSALKEKGIEMAIASRSPTSDIANTFLDKLNIKPMFVAKVSKMGVTSILVGDGVTLGAFRQGLTEFTQNHNSIEKNKQVWRDKYSG,failed
